Experimental data published in the supplement of paper PMC10126150.
± gives the standard deviation of the averaged measurements.

Each sequence was assayed on ATP (assay: switch fluorescence ratio, 500 uM ATP over buffer (Cy3 cluster intensity, sum of 5 cycles each) (fold (ratio)); higher = stronger signal-on switching upon ATP binding; sequences stand for … in TCGTCGGCAGCGTCAGATGTGTATAAGAGACAGTTTTTTTTTTTTTTTTTTTTTTTTT…TC). Conditions: aptamer strand: ATP DNA aptamer (quencher-CACCTGGGGGAGTATTGCGGAGGAAGG + anchor), 100 nM annealed; ATP concentration: 500 uM.
In short: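 Imaging in selection buffer was followed by imaging after 15 min with 500 uM ATP at 22 °C, for Cy3-labelled switching-strand clusters annealed to 100 nM quencher-labelled ATP aptamer on a modified Illumina MiSeq flow-cell. Five of these buffer/ATP cycles ran, separated by NaOH stripping and re-annealing. The fluorescence ratio per cluster is summed target-cycle over summed buffer-cycle Cy3 intensity, averaged per switch-domain sequence; clusters outside 100-1000 RFU were removed.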
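Also: ATP exposure 15 min at 22 °C before imaging.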

| Sequence | switch fluorescence ratio |
| --- | --- |
| AGGAAAGGGC | 0.983 ± 0.034 |
| TTAACATATA | 1.017 ± 0.0088 |
| TATCTGGGGT | 1.02 ± 0.025 |
| AGGTATGGTT | 0.984 ± 0.024 |
| CTGGTATACG | 1.06 ± 0.055 |
| TGGTCCTAGG | 1 ± 0.016 |
| CCAATGATAA | 1.014 ± 0.0034 |
| GGTAGTAGAG | 1.02 ± 0.011 |
| GGCGTAGGCC | 1.2 ± 0.29 |
| GGGCCTATAG | 0.9859 ± 0.0085 |
| CGTGTTTTAT | 0.998 ± 0.039 |
| ACGTGGTATG | 1.02 ± 0.015 |
| GGTAGAGGGC | 0.973 ± 0.061 |
| ATTTTTCCCG | 1.07 ± 0.059 |
| GAGGTGGTGG | 0.998 ± 0.036 |
| ACGGGCTGCT | 1 ± 0.018 |
| CGCTAAAGGG | 1.042 ± 0.0042 |
| GCCAACCACT | 1.03 ± 0.025 |
| CGGGGGATCA | 1.01 ± 0.049 |
| CTGTCGAGGC | 0.977 ± 0.053 |
| TTTTATGTG | 1.01 ± 0.021 |
| CGGGGAGAGC | 1.03 ± 0.039 |
| GCGTGAAGTA | 0.997 ± 0.012 |

| Sequence | switch fluorescence ratio |
| --- | --- |
| AGAGAATACG | 1 ± 0.031 |
| TGTGTGACAC | 0.998 ± 0.026 |
| CAGGTCTTTC | 1.02 ± 0.021 |
| TGACAGTCGT | 0.977 ± 0.024 |
| CTATCTTTAG | 0.9891 ± 0.0043 |
| TACAGCTTTT | 1.01 ± 0.031 |
| TATATCAGGT | 1.018 ± 0.0066 |
| TAACCGGTGC | 1.065 ± 0.01 |
| AAGATGCTTC | 1 ± 0.011 |
| TACGGGCGTC | 1 ± 0.028 |
| TGGGGTCGTC | 1.038 ± 0.0087 |
| GTTTGTACCT | 1.13 ± 0.1 |
| TAATTTTCGT | 1.02 ± 0.03 |
| TTGTGCTGCC | 1.05 ± 0.027 |
| GGGGGGCATC | 1.01 ± 0.024 |
| GATTATTGGT | 0.987 ± 0.031 |
| GTAGCAGCAG | 1.17 ± 0.018 |
| TTCGGCGCTG | 1.03 ± 0.074 |
| ATCGGGGTGC | 1.03 ± 0.016 |
| TTTGGTTCCT | 1.014 ± 0.0091 |
| TGTATAAAGT | 0.986 ± 0.02 |
| GAAATGACTT | 1.03 ± 0.015 |
| TCCCGTAAGT | 1.05 ± 0.069 |

| Sequence | switch fluorescence ratio |
| --- | --- |
| AGCACGAAGG | 0.992 ± 0.04 |
| TTTTTTTGCA | 1 ± 0.024 |
| GGCCGGGTTC | 1.01 ± 0.022 |
| ACGCCGGCGA | 0.9729 ± 0.002 |
| CCGTGCTCTA | 1.281 ± 0.0015 |
| AAACAGCGTA | 1.01 ± 0.032 |
| AGTAAATTTA | 1.001 ± 0.0046 |
| GGCGGAGGGT | 0.986 ± 0.03 |
| ATGATTTGGT | 0.983 ± 0.026 |
| CCAGAGTGTT | 1.33 ± 0.04 |
| GATCTAAAAC | 0.9594 ± 0.0053 |
| GCGAGAACTA | 0.967 ± 0.024 |
| GTTTCATTTT | 1.01 ± 0.012 |
| GTGGTTTGGC | 1.01 ± 0.09 |
| TGACTTGCGT | 0.971 ± 0.042 |
| ATAATTGGCC | 0.97422 ± 0.00035 |
| GGTTCTATGG | 0.99441 ± 3.1e-05 |
| GGGAAAAAGG | 0.983 ± 0.029 |
| TGCTGGATGA | 1 ± 0.047 |
| GATTGAGCTG | 1.02 ± 0.043 |
| AAAGGGAGGA | 1.02 ± 0.036 |
| GATTCGGCTA | 1.02 ± 0.021 |
| TCGTTATGGA | 0.987 ± 0.035 |

| Sequence | switch fluorescence ratio |
| --- | --- |
| TAGAGCATTG | 1 ± 0.044 |
| ACTTTATCTA | 1.03 ± 0.061 |
| GGGATAATTG | 0.978 ± 0.024 |
| AGGAGTTGGG | 0.97 ± 0.046 |
| GGCGGGGGCA | 0.995 ± 0.024 |
| AAACTGGAG | 1.04 ± 0.053 |
| TGTCGGGGTT | 0.9932 ± 0.0083 |
| GGGTCAGTGG | 0.976 ± 0.035 |
| GCAAAACGGG | 1.02 ± 0.069 |
| TGGATGGAGA | 1.006 ± 0.008 |
| GGTTTAGAGC | 1.01 ± 0.02 |
| GGGGAGCGAG | 1.02 ± 0.046 |
| ATTACGTTGG | 0.998 ± 0.024 |
| TTTTAGTCGT | 0.991 ± 0.02 |
| TTGGGACTGT | 0.978 ± 0.054 |
| AATGGTTTTC | 0.9948 ± 0.0023 |
| CATGGAGATT | 0.9866 ± 0.0092 |
| CAAGGATTTT | 0.9929 ± 0.0012 |
| AGGTTAAGTT | 0.989 ± 0.021 |
| GCGAAAACGC | 1.04 ± 0.039 |
| GGGGGATTCC | 1.02 ± 0.017 |
| GCGGCTGCTG | 1.04 ± 0.062 |
| TTTTGGTGTT | 1.02 ± 0.036 |

| Sequence | switch fluorescence ratio |
| --- | --- |
| AGGGGTTACG | 0.981 ± 0.044 |
| GTGTTAGTCG | 1.02 ± 0.1 |
| TTCGGGGAAC | 1.06 ± 0.11 |
| GTTGGGGGTC | 0.995 ± 0.011 |
| TCTATTATCA | 1.04 ± 0.024 |
| ACAGCGGGTG | 1.087 ± 0.01 |
| ATTTGTATGC | 1 ± 0.051 |
| ATTGAACGGG | 1.02 ± 0.016 |
| GCGACAGGGT | 1.023 ± 0.0055 |
| GAAAAAAGCG | 1.01 ± 0.041 |
| GACGATGCGG | 1.196 ± 0.0058 |
| AGAGTCGATT | 1.014 ± 0.0028 |
| TAGTTTTACC | 1 ± 0.013 |
| ATAAAGAGAG | 1.01 ± 0.023 |
| CGGTTTCCGC | 1.04 ± 0.022 |
| AGGACTCTCA | 1.01 ± 0.032 |
| AGTAAAGGCC | 1.02 ± 0.08 |
| CCAGAGGGGG | 0.985 ± 0.067 |
| TTTAGTTGTG | 0.967 ± 0.014 |
| TTCAATATTT | 1 ± 0.024 |
| TTTCAACATA | 0.9987 ± 0.0035 |
| GTCTGGCTAC | 1.22 ± 0.061 |
| TCAGACAGCG | 1.03 ± 0.053 |

| Sequence | switch fluorescence ratio |
| --- | --- |
| GTTGATCAT | 0.983 ± 0.015 |
| GGCGGCATGG | 1.04 ± 0.023 |
| GTTGGTTTGT | 0.986 ± 0.019 |
| TATTGGGTAT | 1.03 ± 0.038 |
| TGATGAAAGA | 0.996 ± 0.021 |
| GGGGCGTGGG | 0.963 ± 0.042 |
| AACACAAGGT | 1.02 ± 0.017 |
| TATTATGCGG | 0.984 ± 0.017 |
| TAGAATCGGG | 0.9758 ± 0.0078 |
| AAAGGGAGAT | 1.027 ± 0.0085 |
| ATGGGCATC | 0.9882 ± 0.0058 |
| CCAGGGGCGC | 1.04 ± 0.017 |
| ACGTTAATGC | 2.09 ± 0.21 |
| TGAGGGATGA | 1.028 ± 0.0075 |
| TGATTCCGCA | 3.07 ± 0.12 |
| CCGTGCACAT | 2.679 ± 0.0035 |
| GACTGGTTGG | 1.02 ± 0.029 |
| GCGATAGCAG | 1.03 ± 0.036 |
| TTTTAAAACT | 1.05 ± 0.039 |
| TTTTAATTG | 0.961 ± 0.038 |
| CGAACCTTGG | 0.998 ± 0.019 |
| AGGGGTTTGC | 0.957 ± 0.021 |
| TTCGGAATTG | 1.04 ± 0.033 |

| Sequence | switch fluorescence ratio |
| --- | --- |
| GGGGCGGGAT | 1.01 ± 0.02 |
| GCTCGGGGTT | 1.01 ± 0.011 |
| TAAATCGGGA | 0.9928 ± 0.0037 |
| ATATTTACGG | 1.079 ± 0.0071 |
| TAATCCTGTA | 0.9994 ± 0.003 |
| CCACTTTCCT | 1.2 ± 0.021 |
| GGTTTTATTG | 0.987 ± 0.044 |
| GGTTGAGTGG | 1 ± 0.036 |
| TTTTTAGTGG | 0.981 ± 0.015 |
| AGGGAAGTTG | 1.01 ± 0.07 |
| ACATTCTATT | 1.01 ± 0.021 |
| TACTAGGCG | 1.014 ± 0.0083 |
| TTTCGAGTTA | 1.03 ± 0.063 |
| GTAATTTTGA | 1.01 ± 0.057 |
| AATCTGATGG | 0.974 ± 0.044 |
| GGGATAGAGC | 0.965 ± 0.05 |
| AGGCCACCTT | 1.04 ± 0.023 |
| CGTGTGGTCG | 0.9325 ± 0.0038 |
| GTTGGGGGGA | 1 ± 0.033 |
